Laboratory results from patent publication US12534748B2, “Engineered beta-subunit of tryptophan synthase for production of non-canonical amino acids” (California Institute of Technology, priority 2015, dated 2026).
Where a chain is given by its changes, count along the chain named. In names and notes the source's numbering stands.

T1: PfTrpA (Pyrococcus furiosus, UniProt Q8U094)
T1 construct: made in house; host or cells: E. coli BL21 E. cloni EXPRESS
T1 sequence (Q8U094 whole entry, looked up): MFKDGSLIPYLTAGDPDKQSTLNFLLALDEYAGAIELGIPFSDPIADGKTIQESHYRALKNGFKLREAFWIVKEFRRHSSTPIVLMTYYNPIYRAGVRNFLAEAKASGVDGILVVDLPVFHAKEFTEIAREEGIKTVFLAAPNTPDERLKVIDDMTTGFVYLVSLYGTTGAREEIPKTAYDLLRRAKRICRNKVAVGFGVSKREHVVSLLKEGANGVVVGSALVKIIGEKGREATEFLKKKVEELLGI

T2: PfTrpA (Pyrococcus furiosus, UniProt Q8U094)
T2 construct: made in house; host or cells: E. coli BL21 E. cloni EXPRESS
T2 sequence (Q8U094 1-248): T1 sequence (Q8U094 whole entry, looked up)
T2 sequence (Q8U093 1-388 partner): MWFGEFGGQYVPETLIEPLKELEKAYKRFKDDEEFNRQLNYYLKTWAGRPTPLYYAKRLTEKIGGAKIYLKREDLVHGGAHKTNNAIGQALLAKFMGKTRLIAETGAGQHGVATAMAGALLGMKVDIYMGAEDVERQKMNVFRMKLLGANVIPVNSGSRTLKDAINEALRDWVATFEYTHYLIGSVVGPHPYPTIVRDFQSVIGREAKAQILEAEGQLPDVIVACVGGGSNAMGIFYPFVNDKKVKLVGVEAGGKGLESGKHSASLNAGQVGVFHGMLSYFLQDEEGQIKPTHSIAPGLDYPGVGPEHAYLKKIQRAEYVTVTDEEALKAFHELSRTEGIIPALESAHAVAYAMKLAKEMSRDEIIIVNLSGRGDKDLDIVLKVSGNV

B1: TmTrpB^WT: wild-type TrpB from Thermotoga maritima, SEQ ID NO:6 (protein, listed as Thermotoga maritima)
chain: MKGYFGPYGGQYVPEILMPALEELEAAYEEIMKDESFWKEFNDLLRDYAGRPTPLYFARRLSEKYGARIYLKREDLLHTGAHKINNAIGQVLLAKKMGKTRIIAETGAGQHGVATATAAALFGMECVIYMGEEDTIRQKPNVERMKLLGAKVVPVKSGSRTLKDAINEALRDWITNLQTTYYVIGSVVGPHPYPIIVRNFQKVIGEETKKQILEKEGRLPDYIVACVGGGSNAAGIFYPFIDSGVKLIGVEAGGEGLETGKHAASLLKGKIGYLHGSKTFVLQDDWGQVQVTHSVSAGLDYSGVGPEHAYWRETGKVLYDAVTDEEALDAFIELSRLEGIIPALESSHALAYLKKINIKGKVVVVNLSGRGDKDLESVLNHPYVRERIRLEHHHHHH
B2: PfTrpB^0B2: PfTrpB with mutations P12L, E17G, I68V, F274S, T292S, T321A (protein)
chain: MWFGEFGGQYVLETLIGPLKELEKAYKRFKDDEEFNRQLNYYLKTWAGRPTPLYYAKRLTEKIGGAKVYLKREDLVHGGAHKTNNAIGQALLAKFMGKTRLIAETGAGQHGVATAMAGALLGMKVDIYMGAEDVERQKMNVFRMKLLGANVIPVNSGSRTLKDAINEALRDWVATFEYTHYLIGSVVGPHPYPTIVRDFQSVIGREAKAQILEAEGQLPDVIVACVGGGSNAMGIFYPFVNDKKVKLVGVEAGGKGLESGKHSASLNAGQVGVSHGMLSYFLQDEEGQIKPSHSIAPGLDYPGVGPEHAYLKKIQRAEYVAVTDEEALKAFHELSRTEGIIPALESAHAVAYAMKLAKEMSRDEIIIVNLSGRGDKDLDIVLKVSGNVLEHHHHHH
modifications: left off: small tags and cut ends
notes: PfTrpB with mutations P12L, E17G, I68V, F274S, T292S, T321A
B3: PfTrpB: wild-type β-subunit of tryptophan synthase from Pyrococcus furiosus, SEQ ID NO:2 (protein, listed as Pyrococcus furiosus)
chain: B2 chain with L12P, G17E, V68I, S274F, S292T, A321T
B4: PfTrpB^2G9: PfTrpB with mutation T292S (protein)
chain: B2 chain with L12P, G17E, V68I, S274F, A321T
modifications: left off: small tags and cut ends
notes: PfTrpB with mutation T292S
B5: PfTrpB^4D11: PfTrpB with mutations E17G, I68V, F274S, T292S, T321A (protein)
chain: B2 chain with L12P
modifications: left off: small tags and cut ends
notes: PfTrpB with mutations E17G, I68V, F274S, T292S, T321A

How the values were obtained:
[1] = Table 1, published values; cited from earlier work
[2] = Kinetics of tryptophan formation monitored at 290 nm (continuous assay for Trp production); type: biochemical
Experimental: Kinetics and UV-Vis Spectroscopy. Data were collected between 550 and 250 nm on a UV1800 Shimadzu spectrophotometer (Shimadzu) using 0.25-20 μM of enzyme in 200 mM potassium phosphate (pH 8.0) in a quartz cuvette. Samples were incubated at 75° C. for >3 min to ensure a stable temperature was reached. PfTrpB activity (kcat) was measured by monitoring tryptophan formation at 290 nm using Δe290=1.89 mM^−1·cm^−1.
Purified protein concentrations were determined via the Bradford assay (Bio-Rad). The concentration of PfTrpB^2B9 in heat treated lysates was determined by specific activity. Tryptophan formation was monitored at 75° C. over 1 min at 290 nm using Δε290=1.89 mM^−1 cm^−1·^2 The assay buffer contained 200 mM potassium phosphate pH 8, and 5 μM PLP. Using purified PfTrpB^2B9, we recorded an activity of 0.9 s^−1 with 400 μM Ind and 20 mM Ser. Using this parameter, 375 mg L^−1 of PfTrpB^2B9 active catalyst were prepared as a heat-treated lysate.

PfTrpA [3] = target: T1, PfTrpA; type: biochemical; conditions: percent of its own activity
PfTrpA [4] = type: biochemical, Pyrococcus furiosus
[5] = Thermostability T50 (temperature of half-maximal activity after incubation for 1 h); type: physicochemical; conditions: for T50: temperature of half-maximal activity after incubation for 1 h
[6] = Substrate selectivity: relative rate of NCAA production with L-serine and indole analogs (UHPLC-MS); type: biochemical
Experimental: engineered TrpB enzymes. (A) Indole analogs that have been reported to react with StTrpS were tested for reactivity with the PfTrpB, PfTrpS, and PfTrpB^0B2 enzymes. The nucleophilic atom is indicated with a gray circle. (B) Relative activities of enzyme complex PfTrpS (black) and PfTrpB^0B2 (gray) compared with PfTrpB. Reactions performed in duplicate with 20 mM of each substrate and varying enzyme concentrations to ensure incomplete conversion after 1 h. Products were later confirmed in scaled-up reactions using PfTrpB^0B2.
Substrate Selectivity. The relative rate of NCAA production was measured using 20 mM L-serine and 20 mM indole analog (FIG. 4A) in 200 mM potassium phosphate (pH 8.0) with 5% (vol/vol) DMSO. Reactions were incubated at 75° C. for 1 h, quenched, and the relative rate of production formation was measured by comparing the ratio of the product peaks measured via ultra HPLC-MS (UHPLC-MS) Agilent 1290 with 6140 MS detector at 280 nm and then normalizing for the enzyme concentration.

[7] = Total turnovers of β-MeTrp formation from L-threonine and indole; type: biochemical; conditions: for Turnovers: 1 μM purified enzyme, 20 mM each L-threonine and indole, 24 h at 75° C.; for turnovers (TTN) of β-MeTrp production: purified enzyme, 24 hours
Experimental: Total Turnover Number (TTN) determination. Measurements were made using HPLC and LC-MS instruments. The amount of Trp formed was measured at 280 nm using a standard curve with trichlorobenzene as internal standard. […] This same technique was used to determine the TTN of the PfTrpB^2B9 reaction with different nucleophiles. […] […] Before addition of enzyme, all reagents were transferred into a Coy anaerobic chamber with <1 ppm O2 to rapidly exchange the atmosphere in the headspace of the vials to 95/5% N2/H2, which limits competing non-catalytic oxidation of indoles. Enzyme was added in the anaerobic environment with varied catalyst loading to ensure a robust product signal in subsequent analysis. Reaction vessels were capped before being removed from the anaerobic chamber and incubated in a 75° C. water bath for 24 hours. Reactions were quenched the next day by addition of 1 volume (150 μL) of 100% ACN, mixing, and allowing to rest at room temperature for 10 min. Quenched solutions were then diluted 5-fold with 40% ACN in water and analyzed via LC-MS.
To identify the best parent enzyme for optimization, we first measured production of β-MeTrp using purified enzymes from each generation in the evolution if PfTrpB^0B2.

PfTrpA [8] = target: T2, PfTrpA; type: biochemical; conditions: Table 1, values for PfTrpB reported here
[9] = Rescreen of library hits for β-MeTrp formation (heat-treated lysate, HPLC); type: biochemical; conditions: random mutagenesis library, parent PfTrpB^4D11, 60 min reaction at 75° C.
Experimental: High-throughput screening. For high-throughput expression, BL21 E. cloni Express cells carrying PfTrpB^4D11 and variant plasmids were grown in 96-well deep well plates in 300 μL TBamp at 37° C. and 80% humidity with shaking at 250 rpm overnight. TBamp expression cultures (630 μL) were inoculated with 20 μL of the overnight cultures and continued to grow at 37° C. and 80% humidity with shaking at 250 rpm for 3 h. Expression was induced with the addition of ITPG to a final concentration of 1 mM to pre-chilled (20 min on ice-water bath) cultures. The expression continued for another 20 h at 20° C. with shaking at 250 rpm. Cells were then centrifuged at 4000 g for 10 min and frozen at −20° C. over night. […] The reactions were then arrested by incubation in an ice-water bath, and the amount of β-MeTrp formed was recorded at 290 nm with a plate reader (Tecan Infinite M200).
Cultures of each hit containing missense mutations were grown in triplicate on 5 mL scale and expression and lysis proceeded in the same manner as described in the Cloning, Expression and Purification section above. Reactions using 10 μM protein as heat-treated lysate (determined by Bradford assay) and 20 mM each substrate were run for 1 h at 75° C. and quenched by dilution to 50% ACN.

Row | Molecule | kcat change with TrpA (PfTrpA [4]) | T50 [5] [°C] | Turnovers [7] | turnovers (TTN) of β-MeTrp production [7] | also measured
1 | B1 |  |  |  |  | kcat change with TrpA [1]: 2.4
2 | B2 | 0.04 | 87 | 180 |  | kcat higher than PfTrpS [2]: threefold; activity when PfTrpA was added (PfTrpA [3]): 4%; activity relative to PfTrpB on the substrate panel ([6]; all nucleophiles tested): substantial increase in activity; rate relative to PfTrpS ([6]; indazole (5)): three; rate relative to PfTrpS ([6]; indoline (6)): approximately six
3 | B3 | 3.2 | 95 | 66 | 66 | kcat change with TrpA (PfTrpA [8]): 3.2; Thermal stability indicators: T50 ([5]; Table 1): 94.7 ± 1.2
4 | B4 | 0.34 | 95 | 420 |  | enhancement of β-MeTrp activity relative to wild-type PfTrpB [7]: approximately 6 fold
5 | B5 | 0.3 | 84 | 660 | ~420 | Fold Improvement (increase in β-MeTrp formation relative to parent) [9]: 1.0 (parent)
